In US6670167:

T1: N-terminus acetylated Syntide-2
T1 chain: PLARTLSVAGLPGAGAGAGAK

T2: Syntide-2, synthetic substrate peptide PLARTLSVAGLPGKK
T2 chain: PLARTLSVAGLPGKK

T3: Biotin-Syntide-2
T3 chain: KAGAGPLARTLSVAGLPGK


Assays:
[1] = molecular target: T1, N-terminus acetylated Syntide-2
[2] = molecular target: T2, Syntide-2, synthetic substrate peptide …
Biotin-Syntide-2 = molecular target: T3, Biotin-Syntide-2

| Protein | Activity [1] | Rate/min (/min (at 7.3 nM enzyme)) [2] | Activity (Biotin-Syntide-2) | Activity [2] | Rate/min (/min (at 75 nM enzyme)) [2] |
| --- | --- | --- | --- | --- | --- |
| Kinase Domain Chk1 (1-289), C-terminally 6xHis-tagged (protein) MAVPFVEDWDLVGTLGEGAYGEVQLAVNRVTEEAVAVKIVDMKRAVDCPENIKKEICINKMLNHENVVKFYGHRREGNIQYLFLEYCSGGELFDRIEPDIGMPEPDAQRFFHQLMAGVVYLHGIGITHRDIKPENLLLDERDNLKISDFGLATVFRYNNRERLLNKMCGTLPYVAPELLKRREFHAEPVDVWSCGIVLTAMLAGELPWDQPSDSCQEYSDWKEKKTYLNPWKKIDSAPLALLHKILVENPSARITIPDIKKDRWYNKPLKKGAKRPRVTSGGVSESPSGHHHHHH | 72% | 0.02 | 67% |  |  |
| Full Length Chk1 (amino acids 1-476 of SEQ ID NO. 2), preparation HA2-013 (protein) MAVPFVEDWDLVGTLGEGAYGEVQLAVNRVTEEAVAVKIVDMKRAVDCPENIKKEICINKMLNHENVVKFYGHRREGNIQYLFLEYCSGGELFDRIEPDIGMPEPDAQRFFHQLMAGVVYLHGIGITHRDIKPENLLLDERDNLKISDFGLATVFRYNNRERLLNKMCGTLPYVAPELLKRREFHAEPVDVWSCGIVLTAMLAGELPWDQPSDSCQEYSDWKEKKTYLNPWKKIDSAPLALLHKILVENPSARITIPDIKKDRWYNKPLKKGAKRPRVTSGGVSESPSGFSKHIQSNLDFSPVNSASSEENVKYSSSQPEPRTGLSLWDTSPSYIDKLVQGISFSQPTCPDHMLLNSGLLGTPGSSQNPWQRLVKRMTRFFTKLDADKSYQCLKETCEKLQYQWKKSCMNQVTISTTDRRNNKLIFKVNLLEMDDKILVDFRLSKGDGLEFKRHFLKIKGKLIDIVSSQKVWLPATHHHHHH |  |  |  | 1 (control) | 0.019 |
